# Laboratory results published in article PMC4297295, “Structural Conservation Despite Huge Sequence Diversity Allows EPCR Binding by the PfEMP1 Family Implicated in Severe Childhood Malaria” (Cell Host & Microbe, 2015).
# T1: endothelial protein C receptor (EPCR), extracellular domain, biotinylated on the N-terminal BAP tag (human, UniProt Q9UNN8 18-210, biotin attached to the N-terminal BAP tag (BirA))
# T1 construct: also called biotinylated recombinant EPCR; ECPR
# T1 sequence: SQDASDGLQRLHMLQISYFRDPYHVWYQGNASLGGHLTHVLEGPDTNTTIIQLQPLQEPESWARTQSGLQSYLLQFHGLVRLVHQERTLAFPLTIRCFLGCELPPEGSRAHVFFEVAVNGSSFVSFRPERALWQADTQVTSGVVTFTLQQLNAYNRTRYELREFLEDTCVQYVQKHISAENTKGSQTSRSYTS
# Tests used:
# [1] = target: endothelial protein C receptor (EPCR), extracellular domain, not biotinylated (human) (UniProt Q9UNN8); experiment: AUC
# [2] = target: endothelial protein C receptor (EPCR), extracellular domain, biotinylated on the N-terminal BAP tag (human) (UniProt Q9UNN8); experiment: SPR
# [3] = target: endothelial protein C receptor (EPCR), extracellular domain, not biotinylated (human) (UniProt Q9UNN8); experiment: SEC-MALS; Superdex 75 analytical column, light scattering at 662 nm at 8 angles (Heleos 8), masses by the Zimm equation (ASTRA 6.1); HB3var03 CIDRα1.4, EPCR and their complex
# [4] = target: endothelial protein C receptor with an N-terminal biotin (human) (UniProt Q9UNN8); experiment: SPR; Biacore T200; EPCR biotinylated with BirA and coupled to a biotin capture chip to 150 RU; binding partners injected for 240 s, dissociation 300 s; 1:1 interaction model
# [5] = target: endothelial protein C receptor (EPCR), extracellular domain, biotinylated on the N-terminal BAP tag (human) (UniProt Q9UNN8); experiment: SPR; Biacore T200; biotinylated EPCR captured on a CAP chip (Biotin Capture Kit) to 150 RU, fresh for each cycle; two-fold dilution series of each CIDRα1 injected for 240 s, dissociation 300 s; 20 mM HEPES pH 7.5, 150 mM NaCl, 0.005% Tween-20, 25°C; surface without EPCR subtracted; global fit to a 1:1 interaction model
# [6] = target: endothelial protein C receptor, extracellular domain (human) (UniProt Q9UNN8); experiment: small-angle X-ray scattering
# [7] = target: CIDRα1.4 domain of PfEMP1 HB3var03, E. coli construct with domain boundaries for crystallisation (Plasmodium falciparum); experiment: ITC; MicroCal iTC200, 25°C, 20 mM HEPES pH 7.5, 150 mM NaCl; EPCR (36 µM by the legend, 50 µM by the supplemental methods) injected into the cell with HB3var03 CIDRα1.4
# [8] = target: T1, endothelial protein C receptor (EPCR), …; experiment: SPR; conditions: both partners purified
# [9] = target: T1, endothelial protein C receptor (EPCR), …; experiment: SPR; Biacore T200; biotinylated EPCR captured on a CAP chip (Biotin Capture Kit) to 150 RU, fresh for each cycle; two-fold dilution series of each CIDRα1 injected for 240 s, dissociation 300 s; 20 mM HEPES pH 7.5, 150 mM NaCl, 0.005% Tween-20, 25°C; surface without EPCR subtracted; global fit to a 1:1 interaction model; conditions: both partners purified
molecule,measurement,setting,value
"CIDRα1.4 domain of PfEMP1 HB3var03, E. coli construct with domain boundaries for crystallisation (domain or fragment)",stoichiometry N,[1],1
same,Kd,[2],0.37 nM
same,koff,[2],0.000197 s⁻¹
same,kon,[2],532000 M⁻¹ s⁻¹
same,stoichiometry N,[3],1
HB3var03 CIDRα1.4 F656Y (domain or fragment),Kd,[4],< 5 nM
same,fold reduction of the affinity against wild-type HB3var03 CIDRα1,[4],4 fold
HB3var03 CIDRα1.4 F655L (domain or fragment),Kd,[4],< 5 nM
"HB3var03 CIDRα1.4 domain, mutant W669S (domain or fragment)",Kd,[5],11 nM
same,koff,[5],0.000449 s⁻¹
same,kon,[5],40100 M⁻¹ s⁻¹
"CIDRα1.4 domain of PfEMP1 IT4var07, E. coli construct with domain boundaries for crystallisation (domain or fragment)",Kd,[2],1.3 nM
same,koff,[2],0.000468 s⁻¹
same,kon,[2],370000 M⁻¹ s⁻¹
DD2var32 DBLα1.7-CIDRα1.4-DBLβ1 (the three membrane distal domains) (domain or fragment),stoichiometry N,[6],1 PfEMP1:EPCR
HB3var03 CIDRα1.4 Q657K (domain or fragment),fold reduction of the affinity against wild-type HB3var03 CIDRα1,[4],200 fold
"HB3var03 CIDRα1.4 domain, mutant V658A (domain or fragment)",Kd,[5],37 nM
same,koff,[5],0.000719 s⁻¹
same,kon,[5],19400 M⁻¹ s⁻¹
"HB3var03 CIDRα1.4 domain, mutant F655Y (domain or fragment)",Kd,[5],0.5 nM
same,koff,[5],0.000572 s⁻¹
same,kon,[5],1.1e+06 M⁻¹ s⁻¹
"HB3var03 CIDRα1.4 domain, mutant F651A (domain or fragment)",Kd,[5],2.5 nM
same,koff,[5],0.000394 s⁻¹
same,kon,[5],160000 M⁻¹ s⁻¹
HB3var03 CIDRα1.4 F655Y (domain or fragment),Kd,[4],< 5 nM
HB3var03 CIDRα1.4 F656A (domain or fragment),fold change in the dissociation rate constant against wild-type HB3var03 CIDRα1,[4],100 fold
same,fold effect on the affinity against wild-type HB3var03 CIDRα1,[4],35 fold
"HB3var03 CIDRα1.4 domain, mutant F655L (domain or fragment)",Kd,[5],4.3 nM
same,koff,[5],0.00063 s⁻¹
same,kon,[5],145000 M⁻¹ s⁻¹
"endothelial protein C receptor (EPCR), extracellular domain, not biotinylated (from UniProt Q9UNN8 18-210)",Kd,[7],1.5 nM
same,stoichiometry N,[7],0.94
"HB3var03 CIDRα1.4 domain, mutant F656Y (domain or fragment)",Kd,[5],1.9 nM
same,koff,[5],0.000379 s⁻¹
same,kon,[5],329000 M⁻¹ s⁻¹
"HB3var03 CIDRα1.4 domain, mutant F656V (domain or fragment)",Kd,[5],1.5 nM
same,koff,[5],0.000223 s⁻¹
same,kon,[5],145000 M⁻¹ s⁻¹
"HB3var03 CIDRα1.4 domain, mutant Q657K (domain or fragment)",Kd,[5],72 nM
same,koff,[5],0.00499 s⁻¹
same,kon,[5],68900 M⁻¹ s⁻¹
HB3var03 CIDRα1.4 F656V (domain or fragment),Kd,[4],< 5 nM
same,fold reduction of the affinity against wild-type HB3var03 CIDRα1,[4],4 fold
"CIDRα1.8b domain GA029_ERS010532 (domain or fragment, also called CIDRa1.8b GA029_ERS010532; GA029 (1.8b)) PDCVVVCERGNCTEKKGDDKCRKKYTYEIPAGMESTKIDILFSGENQEDITEKLRSFCKNTNNENGENIEKWECYYKNEYDNKCKMTSLKREDQKHHDLMSYYEFFDFWVTHLIKDTIKWESDINDCINNTNVTNCNNGCNENCICFEKWVGQKEKEWENVKKVLKNPSENLNNYYNKLNGIFSGFFFGVMHELKKKEAKQGVKVEKAEKSEEAQEAQEEEAKWNKLTAKLEEIIKSHKENTGTGNTQDAIEPLLKYLDENAITCKDNNSLKEDKNCPKTKKNPC",Kd,[8],24.2 nM
same,koff,[8],0.000158 s⁻¹
same,kon,[8],6550 M⁻¹ s⁻¹
CIDRα1.1 domain 2110-3 (patient isolate 2110) (domain or fragment) CPDCVVECVGGECKQKTDDDKNCRSKIIEEILKGEEPTVIDVLYSGNGQGVITKKLHDFCSSTNKEDDKYYKKWKCYNKNSDYNNCELISSLSTDPNDPNVMLSIKCFDSWARNLLVDALKWEHQLKNCINNTNVTDCKSNCNNNCKCYEEWIKRKGREWKQVKGVIENNDEGSHYYYKNVKNLFYNFLYPVIYKLEKEEKNGKWDQFMEDLKKKIESSETNTHTTDSQDAIELLLDHLKENAITCKDNNSLEEDKNC,Kd,[8],32 nM
same,koff,[8],0.000511 s⁻¹
same,kon,[8],15700 M⁻¹ s⁻¹
CIDRα1.8b domain 1702-3 (patient isolate 1702) (domain or fragment) PDCIVVCDYKGCKENKNDENCKSKRTYSLPPDVNSTEIEVLFSGDNQEDIVEKLSSFCKNTNNENGENVEKWECYYESEHNNKCKMTSPKHKDEKRPTVMIFDEFFDFWVTHLIKDTIKWESDINDCINNTNVTDCDSACNENCKCFDEWVEKKEVEWGNVKKVLGNRSENLNIYYNKLNGIFSGFFFGVMHELKKKEAKQGVKAEEAQEAEETQEAQEEEAKWNKLTAKLQEIIDSSKGKADTANSQDAIKPLLEYIKETATTCIDNNSLAVENCPKTKINPC,Kd,[8],6 nM
same,koff,[8],2.28e-05 s⁻¹
same,kon,[8],3640 M⁻¹ s⁻¹
"CIDRα1.5b domain 1918-5 (patient isolate 1918) (domain or fragment, Plasmodium falciparum, The C-terminal V5 and His tags are told for the newly synthesised domains (D1:p2); also called CIDRa1.5b 1918-5_1918; 1918-5 (1.5b)) PDCGVKCTNGKCEEKTDVDGNCGNKETYIPPRDISPTEISVLYSGYKRDDISEKLETFCREPTNNKSKNNETWKCYYKHSYNNKINKCIRQNEENIKNKLIINLDTFFEFWVRSFLNDTIDWKYDLNTCMNFTNTTKCNNNCNKNCKCFEQWVNKKETEWKNVAQYFFKHNEISKKKYCEILKDIFENYYVEVIKKVFKGDNKWKEIMVDIKNKIDCSNLKNGTEHLEKIINVLINQEQADATTCLKNNPIESCPKAEPQKSDENTQPQDTPPNSC",Kd,[9],229 nM
same,koff,[9],0.000108 s⁻¹
same,kon,[9],471 M⁻¹ s⁻¹
